Source: paper PMC8399836

Target: individual G6PD protein (g6pd region of the fused G6PD::6PGL enzyme from Giardia lamblia) (Giardia lamblia)
Test: SEC; size exclusion chromatography (gel filtration) of the purified individual G6PD protein; one peak with G6PD activity; column and buffer not told in the text shown

stoichiometry N: 2
Substance: individual G6PD protein (g6pd region of the fused G6PD::6PGL enzyme from Giardia lamblia) (domain or fragment)
